Test [1] has as its target T1, mouse serum albumin (mouse, UniProt P07724 25-608).
T1 construct: also called MSA; mouse albumin
As to the kind of experiment: ITC, MSA titrated into CP-DOX micelles, PBS pH 7.4, 37 °C. (In general: ITC needs no label: the signal is the heat of the interaction.)

The target in test [2] is T2, human serum albumin (human, UniProt P02768 25-609).
T2 construct: also called HSA; human albumin
As to the kind of experiment: ITC, HSA titrated into ELP, PBS pH 7.4, 37 °C; Example 2 ITC series (FIG. 3A), naked ELP control.

Test [3] concerns the target T1, mouse serum albumin. The experiment in a line: ITC (Nano ITC), albumin titrated into construct, PBS, 37 °C; PTX-example ITC series (Table 10), CP without ABD and without drug; µM fit.
Test [4] deals with T1, mouse serum albumin. As to the kind of experiment: ITC, MSA titrated into ELP, PBS pH 7.4, 37 °C; Example 2 ITC series (FIG. 4A), naked ELP control; fitted N with an error larger than the value.
The target in test [5] is T2, human serum albumin. As to the kind of experiment: ITC, HSA titrated into ELP, PBS pH 7.4, 37 °C; Example 2 ITC series (FIG. 3A), naked ELP control; weak µM best-fit KD that the text calls no specific affinity.
Test [6] has as its target T1, mouse serum albumin. As to the kind of experiment: ITC, MSA titrated into ELP, PBS pH 7.4, 37 °C; Example 2 ITC series (FIG. 4A), naked ELP control; weak µM best-fit KD that the text calls no specific affinity.
Test [7] deals with T1, mouse serum albumin. The experiment in a line: ITC, MSA titrated into ABDH-ELP, PBS pH 7.4, 37 °C.
Procedure: (§1) The experiments were performed in phosphate buffered saline (pH 7.4) at 37° C.
In test [8] the target is T1, mouse serum albumin. As to the kind of experiment: ITC, MSA titrated into ABDH-CP-DOX micelles, PBS pH 7.4, 37 °C.
Procedure: as §1
The target of test [9] is T1, mouse serum albumin. As to the kind of experiment: ITC, MSA titrated into ABDN-CP-DOX micelles, PBS pH 7.4, 37 °C.
Procedure: as §1
Test [10] concerns the target T1, mouse serum albumin. As to the kind of experiment: ITC (Nano ITC), albumin titrated into micelles, PBS, 37 °C.
Procedure: (§2) For PTX conjugates, ITC was conducted using a Nano ITC system (TA Instruments, Utah, USA). […] For background correction, PBS (in the cell) was titrated with albumin (in the syringe) at the same concentrations and conditions. Background was subtracted from the final curves and the binding and thermodynamic parameters binding constant (KD), number of binding sites (n), and enthalpy (ΔH)—were computed by non-linear fitting to an independent-binding site model using TA Instruments NanoAnalyze software.
For test [11], the target named is T2, human serum albumin. The test is described as above.
Procedure: as §2
The target in test [12] is T2, human serum albumin. As to the kind of experiment: ITC, HSA titrated into ABDN-ELP, PBS pH 7.4, 37 °C.
Procedure: as §1
The target of test [13] is T1, mouse serum albumin. The experiment in a line: ITC, MSA titrated into ABDN-ELP, PBS pH 7.4, 37 °C.
Procedure: as §1
For test [14], the target named is T1, mouse serum albumin. As to the kind of experiment: ITC (Nano ITC), albumin titrated into construct, PBS, 37 °C.
The target of test [15] is T2, human serum albumin. The description is as above.

Here are results for seven molecules from patent US20210316007A1 (DUKE UNIVERSITY, published 2021).

Where a chain is given by its changes, count along the chain named.

T1 sequence (P07724 25-608 limits assumed): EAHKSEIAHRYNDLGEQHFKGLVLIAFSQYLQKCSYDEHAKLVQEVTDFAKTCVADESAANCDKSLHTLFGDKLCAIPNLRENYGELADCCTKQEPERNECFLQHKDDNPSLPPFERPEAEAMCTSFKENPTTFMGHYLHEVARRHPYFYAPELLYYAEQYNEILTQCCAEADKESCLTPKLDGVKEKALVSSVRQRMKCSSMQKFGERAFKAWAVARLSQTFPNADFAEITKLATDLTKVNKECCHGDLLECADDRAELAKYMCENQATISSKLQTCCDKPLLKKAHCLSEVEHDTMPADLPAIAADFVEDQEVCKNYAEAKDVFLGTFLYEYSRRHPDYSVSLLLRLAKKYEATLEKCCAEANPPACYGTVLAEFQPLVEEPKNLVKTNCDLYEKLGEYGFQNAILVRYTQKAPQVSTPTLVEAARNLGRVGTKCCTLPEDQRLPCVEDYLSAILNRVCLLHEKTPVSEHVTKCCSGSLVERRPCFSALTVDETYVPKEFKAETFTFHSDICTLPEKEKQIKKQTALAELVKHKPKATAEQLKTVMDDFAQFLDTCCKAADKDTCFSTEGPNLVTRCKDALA

Regarding “CP-DOX micelles (doxorubicin-conjugated chimeric polypeptide without ABD)”, in test [1], the Kd – broadly, the concentration at which binding is half-saturated – is 91900 nM and the binding stoichiometry N is 0.0386.
Regarding “ELP (naked elastin-like polypeptide with no ABD at its N-terminus)”, the binding stoichiometry N in [2] worked out at 0.75; in test [4], 0.152. Also, the figures for the Kd in [3], in [5] and in test [6] were 3500 nM, 69000 nM and 71400 nM, respectively.

B1: ABDH-ELP (albumin binding domain H, engineered variant of ABDN, fused to the N-terminus of ELP) (designed binder)
chain: LAEAKVLANRELDKYGVSDFYKRLINKAKTVEGVEALKLHILAALPVPGAGVPGAGVPGAGVPGAGVPGAGVPGAGVPGAGVPGAGVPGAGVPGAGVPGAGVPGAGVPGAGVPGAGVPGAGVPGAGVPGAGVPGAGVPGAGVPGAGVPGAGVPGAGVPGAGVPGAGVPGAGVPGAGVPGAGVPGAGVPGAGVPGAGVPGAGVPGAGVPGAGVPGAGVPGAGVPGAGVPGAGVPGAGVPGAGVPGAGVPGAGVPGAGVPGAGVPGAGVPGAGVPGAGVPGAGVPGAGVPGAGVPGAGVPGAGVPGAGVPGAGVPGAGVPGAGVPGAGVPGAGVPGAGVPGAGVPGAGVPGAGVPGAGVPGAGVPGAGVPGAGVPGAGVPGAGVPGAGVPGAGVPGAGVPGAGVPGAGVPGAGVPGAGVPGAGVPGAGVPGAGVPGAGVPGAGVPGAGVPGAGVPGAGVPGAGVPGAGVPGAGVPGAGVPGAGVPGAGVPGAGVPGAGVPGAGVPGAGVPGAGVPGAGVPGAGVPGAGVPGAGVPGAGVPGAGVPGAGVPGAGVPGAGVPGAGVPGAGVPGAGVPGAGVPGAGVPGAGVPGAGVPGAGVPGAGVPGAGVPGAGVPGAGVPGAGVPGAGVPGAGVPGAGVPGAGVPGAGVPGAGVPGAGVPGAGVPGAGVPGAGVPGAGVPGAGVPGAGVPGAGVPGAGVPGAGVPGAGVPGAGVPGAGVPGAGVPGAGVPGAGVPGAGVPGAGVPGAGVPGAGVPGAGVPGAGCGGCGGCGGCGGCGGCGGCGGCGG
notes: Unconjugated monomer, 68.6 kDa by SDS-PAGE; also called ABDH-CP
In turn, B1 came in with a Kd in test [7] of 5.19 nM.

B2: ABDH-CP-DOX micelles (doxorubicin-conjugated ABDH-chimeric polypeptide) (designed binder)
chain: B1 chain
notes: Self-assembled micelle; aggregates at 37 °C without albumin
With B2, the dissociation constant (Kd) in test [8] came to 66.1 nM.

B3: ABDN-CP-DOX micelles (doxorubicin-conjugated ABDN-chimeric polypeptide) (designed binder)
chain: B1 chain with F20Y, R23N, K27N, E35K, K38I, L39D, H40E
notes: Self-assembled micelle; also called ABD-CP-DOX
In turn, B3 showed a Kd in test [9] of 318 nM.

B4: ABD-CP-PTX micelles (paclitaxel-conjugated ABD-chimeric polypeptide) (designed binder)
chain: B1 chain with F20Y, R23N, K27N, E35K, K38I, L39D, H40E
notes: Self-assembled micelle; also called ABDN-CP-PTX
On to B4, for which the results for the Kd in [10] and in test [11] were 4.37 nM and 5.58 nM, respectively.

B5: ABDN-ELP (albumin binding domain N fused to the N-terminus of ELP) (designed binder)
chain: LAEAKVLANRELDKYGVSDYYKNLINNAKTVEGVKALIDEILAALPVPGAGVPGAGVPGAGVPGAGVPGAGVPGAGVPGAGVPGAGVPGAGVPGAGVPGAGVPGAGVPGAGVPGAGVPGAGVPGAGVPGAGVPGAGVPGAGVPGAGVPGAGVPGAGVPGAGVPGAGVPGAGVPGAGVPGAGVPGAGVPGAGVPGAGVPGAGVPGAGVPGAGVPGAGVPGAGVPGAGVPGAGVPGAGVPGAGVPGAGVPGAGVPGAGVPGAGVPGAGVPGAGVPGAGVPGAGVPGAGVPGAGVPGAGVPGAGVPGAGVPGAGVPGAGVPGAGVPGAGVPGAGVPGAGVPGAGVPGAGVPGAGVPGAGVPGAGVPGAGVPGAGVPGAGVPGAGVPGAGVPGAGVPGAGVPGAGVPGAGVPGAGVPGAGVPGAGVPGAGVPGAGVPGAGVPGAGVPGAGVPGAGVPGAGVPGAGVPGAGVPGAGVPGAGVPGAGVPGAGVPGAGVPGAGVPGAGVPGAGVPGAGVPGAGVPGAGVPGAGVPGAGVPGAGVPGAGVPGAGVPGAGVPGAGVPGAGVPGAGVPGAGVPGAGVPGAGVPGAGVPGAGVPGAGVPGAGVPGAGVPGAGVPGAGVPGAGVPGAGVPGAGVPGAGVPGAGVPGAGVPGAGVPGAGVPGAGVPGAGVPGAGVPGAGVPGAGVPGAGVPGAGVPGAGVPGAGVPGAGVPGAGVPGAGVPGAGVPGAGVPGAGVPGAGVPGAGVPGAGVPGAGVPGAGVPGAGVPGAGVPGAGVPGAGCGGCGGCGGCGGCGGCGGCGGCGG
notes: Unconjugated monomer, 68.5 kDa by SDS-PAGE; also called ABDN-CP; ABD-CP
For the molecule B5, the dissociation constant (Kd) in test [12] was 48.4 nM; in [13], 66.4 nM; in [14], 16.3 nM; in test [15], 6.47 nM.
